Reference: paper PMC2777448 (Nucleic Acids Research, 2009)

How the values were obtained:
Test in all cases: pull-down
[1] = molecular target: T1, (His)9-tagged srs2 1–998 (S. cerevisiae, UniProt P12954 1-998)
T1 sequence: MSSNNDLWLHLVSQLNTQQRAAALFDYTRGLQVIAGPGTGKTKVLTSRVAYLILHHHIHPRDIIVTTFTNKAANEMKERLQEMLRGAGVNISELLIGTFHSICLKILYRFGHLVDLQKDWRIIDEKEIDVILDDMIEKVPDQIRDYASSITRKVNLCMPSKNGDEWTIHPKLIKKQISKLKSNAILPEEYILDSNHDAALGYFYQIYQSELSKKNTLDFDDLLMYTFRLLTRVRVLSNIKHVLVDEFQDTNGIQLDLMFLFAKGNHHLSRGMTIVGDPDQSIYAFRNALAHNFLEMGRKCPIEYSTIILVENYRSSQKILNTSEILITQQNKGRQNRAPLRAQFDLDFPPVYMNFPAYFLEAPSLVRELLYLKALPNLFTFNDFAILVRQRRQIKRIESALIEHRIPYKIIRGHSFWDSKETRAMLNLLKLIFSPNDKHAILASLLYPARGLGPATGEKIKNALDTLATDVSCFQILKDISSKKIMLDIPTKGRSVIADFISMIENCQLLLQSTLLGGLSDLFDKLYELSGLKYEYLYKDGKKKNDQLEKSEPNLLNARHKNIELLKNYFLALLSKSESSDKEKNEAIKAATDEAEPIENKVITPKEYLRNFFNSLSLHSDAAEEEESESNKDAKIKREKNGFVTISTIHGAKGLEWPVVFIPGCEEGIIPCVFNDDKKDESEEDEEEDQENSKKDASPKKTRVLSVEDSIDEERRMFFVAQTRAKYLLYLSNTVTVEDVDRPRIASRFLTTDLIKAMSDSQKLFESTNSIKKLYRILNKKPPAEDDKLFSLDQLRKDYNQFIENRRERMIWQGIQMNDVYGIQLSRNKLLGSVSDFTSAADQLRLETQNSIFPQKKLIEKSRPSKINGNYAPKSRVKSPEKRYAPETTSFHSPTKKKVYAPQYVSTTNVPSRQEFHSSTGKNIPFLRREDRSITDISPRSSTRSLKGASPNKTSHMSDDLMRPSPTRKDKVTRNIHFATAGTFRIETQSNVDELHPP

[2] = molecular target: T2, (His)9-tagged srs2 1–910 (S. cerevisiae, UniProt P12954 1-910)
T2 sequence: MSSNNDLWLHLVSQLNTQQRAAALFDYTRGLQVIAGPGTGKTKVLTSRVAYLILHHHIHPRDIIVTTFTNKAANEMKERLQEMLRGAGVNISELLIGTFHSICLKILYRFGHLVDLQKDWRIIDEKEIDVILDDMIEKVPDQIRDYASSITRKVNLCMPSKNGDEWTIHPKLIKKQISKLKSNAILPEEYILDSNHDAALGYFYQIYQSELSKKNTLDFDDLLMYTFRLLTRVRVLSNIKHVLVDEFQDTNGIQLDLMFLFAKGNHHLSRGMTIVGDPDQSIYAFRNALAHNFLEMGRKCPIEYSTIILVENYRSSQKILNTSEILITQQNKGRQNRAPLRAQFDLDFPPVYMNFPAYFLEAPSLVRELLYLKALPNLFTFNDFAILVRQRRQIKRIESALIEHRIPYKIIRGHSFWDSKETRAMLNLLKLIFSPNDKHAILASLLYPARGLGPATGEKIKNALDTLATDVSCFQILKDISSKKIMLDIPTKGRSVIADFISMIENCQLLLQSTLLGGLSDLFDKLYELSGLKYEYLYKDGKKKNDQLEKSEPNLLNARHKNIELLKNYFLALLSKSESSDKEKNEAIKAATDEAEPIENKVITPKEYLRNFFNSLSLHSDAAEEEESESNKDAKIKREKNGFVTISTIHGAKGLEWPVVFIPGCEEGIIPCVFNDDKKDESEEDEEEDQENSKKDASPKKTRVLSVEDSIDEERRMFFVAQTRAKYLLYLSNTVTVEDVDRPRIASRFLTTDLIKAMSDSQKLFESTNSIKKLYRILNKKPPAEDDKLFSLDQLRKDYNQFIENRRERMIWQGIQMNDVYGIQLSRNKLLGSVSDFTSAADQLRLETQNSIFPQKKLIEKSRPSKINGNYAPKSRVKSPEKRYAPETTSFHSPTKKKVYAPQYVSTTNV

[3] = molecular target: T3, (His)9-tagged srs2 1–890 (S. cerevisiae, UniProt P12954 1-890)
T3 sequence: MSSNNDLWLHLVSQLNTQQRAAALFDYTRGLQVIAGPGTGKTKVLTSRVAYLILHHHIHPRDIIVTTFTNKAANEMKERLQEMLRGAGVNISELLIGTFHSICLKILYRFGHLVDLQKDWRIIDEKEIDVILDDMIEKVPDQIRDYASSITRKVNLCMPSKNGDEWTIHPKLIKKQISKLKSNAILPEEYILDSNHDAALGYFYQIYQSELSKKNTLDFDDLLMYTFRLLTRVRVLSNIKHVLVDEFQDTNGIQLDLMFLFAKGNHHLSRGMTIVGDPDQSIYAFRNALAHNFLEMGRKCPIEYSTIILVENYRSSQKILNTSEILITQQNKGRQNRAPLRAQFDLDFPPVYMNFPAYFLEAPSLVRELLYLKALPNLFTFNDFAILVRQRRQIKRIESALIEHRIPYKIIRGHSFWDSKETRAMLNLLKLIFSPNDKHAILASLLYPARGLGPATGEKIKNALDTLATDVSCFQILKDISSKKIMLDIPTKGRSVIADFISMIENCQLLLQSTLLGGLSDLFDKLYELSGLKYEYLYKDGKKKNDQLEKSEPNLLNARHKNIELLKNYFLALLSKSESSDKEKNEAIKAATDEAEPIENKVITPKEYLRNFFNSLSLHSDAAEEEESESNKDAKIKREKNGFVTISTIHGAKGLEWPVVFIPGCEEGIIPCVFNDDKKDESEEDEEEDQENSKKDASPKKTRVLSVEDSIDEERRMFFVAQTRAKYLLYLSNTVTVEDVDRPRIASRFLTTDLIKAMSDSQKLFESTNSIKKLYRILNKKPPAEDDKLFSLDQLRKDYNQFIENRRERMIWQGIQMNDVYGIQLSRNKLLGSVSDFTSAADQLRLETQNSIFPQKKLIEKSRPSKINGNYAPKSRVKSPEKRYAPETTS

[4] = molecular target: T4, (His)9-tagged full length Srs2 (S. cerevisiae, UniProt P12954 1-1174)
T4 sequence: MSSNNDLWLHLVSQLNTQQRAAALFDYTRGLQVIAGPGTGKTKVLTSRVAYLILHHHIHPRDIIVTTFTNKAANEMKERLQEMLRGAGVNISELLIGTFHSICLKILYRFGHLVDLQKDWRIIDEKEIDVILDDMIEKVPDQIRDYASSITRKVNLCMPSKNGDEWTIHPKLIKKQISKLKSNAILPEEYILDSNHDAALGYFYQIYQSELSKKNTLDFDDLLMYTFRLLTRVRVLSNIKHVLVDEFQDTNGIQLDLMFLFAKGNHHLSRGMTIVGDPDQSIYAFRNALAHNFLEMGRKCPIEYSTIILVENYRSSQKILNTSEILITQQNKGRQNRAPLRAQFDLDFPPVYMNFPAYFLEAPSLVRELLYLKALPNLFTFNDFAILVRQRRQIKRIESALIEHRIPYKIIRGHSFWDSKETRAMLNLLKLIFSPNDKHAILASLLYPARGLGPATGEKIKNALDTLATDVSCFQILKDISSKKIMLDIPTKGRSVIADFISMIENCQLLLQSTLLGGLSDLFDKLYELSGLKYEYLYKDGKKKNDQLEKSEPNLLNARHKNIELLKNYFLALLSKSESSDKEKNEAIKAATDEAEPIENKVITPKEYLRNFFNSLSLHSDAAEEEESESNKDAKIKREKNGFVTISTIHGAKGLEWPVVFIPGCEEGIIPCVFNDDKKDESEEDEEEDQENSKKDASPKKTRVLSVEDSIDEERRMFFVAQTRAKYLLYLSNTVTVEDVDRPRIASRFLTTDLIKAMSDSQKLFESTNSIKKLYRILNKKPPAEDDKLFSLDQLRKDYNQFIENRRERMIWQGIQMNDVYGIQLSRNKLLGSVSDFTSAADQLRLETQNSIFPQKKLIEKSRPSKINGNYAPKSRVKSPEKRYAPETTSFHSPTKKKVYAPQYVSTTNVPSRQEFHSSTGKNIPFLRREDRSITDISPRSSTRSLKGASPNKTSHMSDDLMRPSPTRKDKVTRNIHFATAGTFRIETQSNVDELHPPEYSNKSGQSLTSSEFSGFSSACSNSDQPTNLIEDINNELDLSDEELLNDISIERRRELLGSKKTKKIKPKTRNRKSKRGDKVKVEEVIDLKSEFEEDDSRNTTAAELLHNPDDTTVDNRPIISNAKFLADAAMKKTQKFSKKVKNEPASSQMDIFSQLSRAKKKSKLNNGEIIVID

Measured: binding result

B1: Rad51 (natural protein)
chain: MSQVQEQHISESQLQYGNGSLMSTVPADLSQSVVDGNGNGSSEDIEATNGSGDGGGLQEQAEAQGEMEDEAYDEAALGSFVPIEKLQVNGITMADVKKLRESGLHTAEAVAYAPRKDLLEIKGISEAKADKLLNEAARLVPMGFVTAADFHMRRSELICLTTGSKNLDTLLGGGVETGSITELFGEFRTGKSQLCHTLAVTCQIPLDIGGGEGKCLYIDTEGTFRPVRLVSIAQRFGLDPDDALNNVAYARAYNADHQLRLLDAAAQMMSESRFSLIVVDSVMALYRTDFSGRGELSARQMHLAKFMRALQRLADQFGVAVVVTNQVVAQVDGGMAFNPDPKKPIGGNIMAHSSTTRLGFKKGKGCQRLCKVVDSPCLPEAECVFAIYEDGVGDPREEDE
binds: all assays above
